Assay results reported in publication PMC4970216.

Substrate: C[C@]12CC[C@@H]3c4ccc(O)cc4CC[C@H]3[C@@H]1CC[C@@H]2O[C@@H]1O[C@H](C(=O)O)[C@@H](O)[C@H](O)[C@H]1O
Assay: cells, lysate or membranes
Format: cell-based, Homo sapiens

B1: Organic anion transporting polypeptide (OATP) 1B1 (Homo sapiens) (protein)
chain: MDQNQHLNKTAEAQPSENKKTRYCNGLKMFLAALSLSFIAKTLGAIIMKSSIIHIERRFEISSSLVGFIDGSFEIGNLLVIVFVSYFGSKLHRPKLIGIGCFIMGIGGVLTALPHFFMGYYRYSKETNINSSENSTSTLSTCLINQILSLNRASPEIVGKGCLKESGSYMWIYVFMGNMLRGIGETPIVPLGLSYIDDFAKEGHSSLYLGILNAIAMIGPIIGFTLGSLFSKMYVDIGYVDLSTIRITPTDSRWVGAWWLNFLVSGLFSIISSIPFFFLPQTPNKPQKERKASLSLHVLETNDEKDQTANLTNQGKNITKNVTGFFQSFKSILTNPLYVMFVLLTLLQVSSYIGAFTYVFKYVEQQYGQPSSKANILLGVITIPIFASGMFLGGYIIKKFKLNTVGIAKFSCFTAVMSLSFYLLYFFILCENKSVAGLTMTYDGNNPVTSHRDVPLSYCNSDCNCDESQWEPVCGNNGITYISPCLAGCKSSSGNKKPIVFYNCSCLEVTGLQNRNYSAHLGECPRDDACTRKFYFFVAIQVLNLFFSALGGTSHVMLIVKIVQPELKSLALGFHSMVIRALGGILAPIYFGALIDTTCIKWSTNNCGTRGSCRTYNSTSFSRVYLGLSSMLRVSSLVLYIILIYAMKKKYQEKDINASENGSVMDEANLESLNKNKHFVPSAGADSETHC
**Q.** How did the Km turn out when B1 was run?
**A.** Its Km is 7.20 ± 0.57 µM.
